Km data for one protein are collected here from article doi:10.1101/2024.05.16.594462v2.

Substrate in this series: OC[C@H]1O[C@@H](n2cnc3c(O)ncnc32)[C@H](O)[C@@H]1O
The series is described as follows: purified protein. Conditions: […] hPNP.

B1: human purine nucleoside phosphorylase (hPNP) (Homo sapiens) (protein)
chain: MENGYTYEDYKNTAEWLLSHTKHRPQVAIICGSGLGGLTDKLTQAQIFDYGEIPNFPRSTVPGHAGRLVFGFLNGRACVMMQGRFHMYEGYPLWKVTFPVRVFHLLGVDTLVVTNAAGGLNPKFEVGDIMLIRDHINLPGFSGQNPLRGPNDERFGDRFPAMSDAYDRTMRQRALSTWKQMGEQRELQEGTYVMVAGPSFETVAECRVLQKLGADAVGMSTVPEVIVARHCGLRVFGFSLITNKVIMDYESLEKANHEEVLAAGKQAAQKLEQFVSILMASIPLPDKAS
The term Km denotes the concentration of substrate that gives half-maximal velocity. As to B1, the Km was 68.92 ± 4.08 µM.
